Assay results published in patent publication US20030096288A1 (Human Genome Sciences, published 2003).

Biological target: T1, RAIDD (construct or tag not stated for the experiment) (human, UniProt P78560 1-199)
T1 construct: a tag may have been present; also called RAIDD expression construct
Assay: in vitro binding to GST fusion protein on glutathione beads
Description: In Vitro Binding Assay. […] The tagged proteins were expressed, purified, and immobilized into Ni²⁺ beads according to standard methodology. The GST-Fas and TNFR-1 fusion proteins were prepared as described previously (Chinnaiyan, A. M. et al., Cell 81:505-12 (1995)). ³⁵S-labeled proteins were obtained by in vitro transcription/translation using the TNT T7-coupled reticulocyte lysate system (Promega).
Beads were washed, boiled in SDS sample buffer, eluted proteins resolved by SDS-PAGE and visualized following autoradiography.

T1 sequence (P78560 whole entry): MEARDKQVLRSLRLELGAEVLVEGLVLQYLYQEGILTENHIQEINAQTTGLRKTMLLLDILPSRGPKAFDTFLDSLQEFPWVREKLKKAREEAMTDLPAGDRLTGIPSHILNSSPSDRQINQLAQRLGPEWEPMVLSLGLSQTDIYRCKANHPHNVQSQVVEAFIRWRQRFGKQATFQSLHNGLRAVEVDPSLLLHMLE

binding result: no binding
B1: GST-Fas fusion protein (receptor, UniProt P25445 191-335, looked up)
chain: KRKEVQKTCRKHRKENQGSHESPTLNPETVAINLSDVDLSKYITTIAGVMTLSQVKGFVRKNGVNEAKIDEIKNDNVQDTAEQKVQLLRNWHQLHGKKEAYDTLIKDLKKANLCTLAEKIQTIILKDITSDSENSNFRNEIQSLV
notes: not shown: GST
